The record followed here is US20150174203A1 (ICAHN SCHOOL OF MEDICINE AT MOUNT SINAI, published 2015).

The labels stand for the following.
B4: human Angptl-2 with FLAG tag at the C-terminus, mammalian-expressed (ligand, not shown: small tags and cut ends)
chain: QEDGFEGTEEGSPREFIYLNRYKRAGESQDKCTYTFIVPQQRVTGAICVNSKEPEVLLENRVHKQELELLNNELLKQKRQIETLQQLVEVDGGIVSEVKLLRKESRNMNSRVTQLYMQLLHEIIRKRDNALELSQLENRILNQTADMLQLASKYKDLEHKYQHLATLAHNQSEIIAQLEEHCQRVPSARPVPQPPPAAPPRVYQPPTYNRIINQISTNEIQSDQNLKVLPPPLPTMPTLTSLPSSTDKPSGPWRDCLQALEDGHDTSSIYLVKPENTNRLMQVWCDQRHDPGGWTVIQRRLDGSVNFFRNWETYKQGFGNIDGEYWLGLENIYWLTNQGNYKLLVTMEDWSGRKVFAEYASFRLEPESEYYKLRLGRYHGNAGDSFTWHNGKQFTTLDRDHDVYTGNCAHYQKGGWWYNACAHSNLNGVWYRGGHYRSRYQDGVYWAEFRGGSYSLKKVVMMIRPNPNTFH
notes: also called Angptl-2-FLAG; A2-Flag (mammalian)
B7: LILRA2 (receptor, UniProt Q8N149 24-483, looked up)
chain: GHLPKPTLWAEPGSVIIQGSPVTLRCQGSLQAEEYHLYRENKSASWVRRIQEPGKNGQFPIPSITWEHAGRYHCQYYSHNHSSEYSDPLELVVTGAYSKPTLSALPSPVVTSGGNVTLQCVSQVAFDGFILCKEGEDEHPQRLNSHSHARGWSWAIFSVGPVSPSRRWSYRCYAYDSNSPYVWSLPSDLLELLVPGVSKKPSLSVQPGPMVAPGESLTLQCVSDVGYDRFVLYKEGERDFLQRPGWQPQAGLSQANFTLGPVSPSHGGQYRCYSAHNLSSEWSAPSDPLDILITGQFYDRPSLSVQPVPTVAPGKNVTLLCQSRGQFHTFLLTKEGAGHPPLHLRSEHQAQQNQAEFRMGPVTSAHVGTYRCYSSLSSNPYLLSLPSDPLELVVSEAAETLSPSQNKTDSTTTSLGQHPQDYTVENLIRMGVAGLVLVVLGILLFEAQHSQRSLQDAAGR
notes: whole, on cells

The target of assay [1] is T1, paired immunoglobulin-like receptor B (PirB) (mouse, UniProt P97484 25-841).
T1 construct: whole, on cells
T1 sequence (looked up): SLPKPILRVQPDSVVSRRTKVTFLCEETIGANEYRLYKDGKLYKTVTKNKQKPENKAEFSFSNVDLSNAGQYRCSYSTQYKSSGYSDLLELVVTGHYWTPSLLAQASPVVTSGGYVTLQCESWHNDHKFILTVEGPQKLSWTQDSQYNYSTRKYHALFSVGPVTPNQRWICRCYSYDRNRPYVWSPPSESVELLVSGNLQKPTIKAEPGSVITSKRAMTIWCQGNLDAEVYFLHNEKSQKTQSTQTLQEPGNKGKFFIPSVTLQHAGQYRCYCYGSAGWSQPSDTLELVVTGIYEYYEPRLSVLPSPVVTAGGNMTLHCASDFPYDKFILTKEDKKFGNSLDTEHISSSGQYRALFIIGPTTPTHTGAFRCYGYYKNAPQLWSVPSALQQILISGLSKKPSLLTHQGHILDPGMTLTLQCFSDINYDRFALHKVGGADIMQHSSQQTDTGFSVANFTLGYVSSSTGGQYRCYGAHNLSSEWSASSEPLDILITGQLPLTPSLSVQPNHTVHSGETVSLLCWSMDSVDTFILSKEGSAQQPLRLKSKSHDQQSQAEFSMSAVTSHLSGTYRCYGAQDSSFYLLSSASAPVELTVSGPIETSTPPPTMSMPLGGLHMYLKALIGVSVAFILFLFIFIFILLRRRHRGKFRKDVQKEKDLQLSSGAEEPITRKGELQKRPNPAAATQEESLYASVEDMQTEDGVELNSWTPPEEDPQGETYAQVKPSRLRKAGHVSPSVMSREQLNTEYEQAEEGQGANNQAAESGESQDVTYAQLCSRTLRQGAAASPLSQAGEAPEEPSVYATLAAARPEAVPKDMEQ
In words: flow cytometry, PirB-transfected 293T cells, GST-Angptl-5-FLAG according to the legend, Angptl binding against PirB staining; left gate of the same panel 46; Control panel 123 (left) and 183 (right). The method, then: (§1) Plasmids and proteins. […] Angptl-2-FLAG was purified using M2 resin. Purified GST-Angptl-5 was purchased from Abnova. Bacterially-expressed Flag-Angptl-2 and Angptl-2-Flag were constructed in pET-26b(+) vector, and GST-Angptls-FLAG in pGEX vector, and expressed and purified from bacteria. […] Anti-LILRB2-PE was used as indicated. The cells were analyzed using either a FACSCalibur or FACSAria instrument (Becton Dickinson).
On the technique in general: In flow cytometry, cells or beads pass a laser one at a time.

For assay [2], the target named is T2, LILRA4 (UniProt P59901 24-499, limits assumed).
T2 construct: whole, on cells
As to the kind of experiment: flow cytometry on transfected 293T cells. How it is done: as §1

For assay [3], the target named is T3, LILRB1 (human, UniProt Q8NHL6 24-650).
T3 construct: also called leukocyte immunoglobulin-like receptor B1
As to the kind of experiment: flow cytometry on transfected 293T cells. The method, then:
as §1

Assay [4] addresses T4, LILRB3 (human, UniProt O75022 24-631).
T4 construct: also called leukocyte immunoglobulin-like receptor B3
In words: flow cytometry on transfected 293T cells. How it is done: as §1

The target of assay [5] is T5, LILRB5 (human, UniProt O75023 24-590).
T5 construct: also called leukocyte immunoglobulin-like receptor B5
As to the kind of experiment: flow cytometry on transfected 293T cells. The method, then:
as §1

The target in assay [6] is T6, LILRA1 (UniProt O75019 17-489, limits assumed).
T6 construct: whole, on cells
In words: flow cytometry on transfected 293T cells. How it is done:
as §1

Assay [7] concerns the target B7. As to the kind of experiment: flow cytometry on transfected 293T cells. The method, then: as §1
Assay [8] deals with T1, paired immunoglobulin-like receptor B …. As to the kind of experiment: flow cytometry on PirB-transfected 293T cells. The method, then:
as §1

Assay [9] has as its target T7, human Angptl-7 with FLAG tag at the C-terminus (human, UniProt O43827 27-346).
T7 construct: not shown: FLAG tag at the C-terminus
T7 sequence: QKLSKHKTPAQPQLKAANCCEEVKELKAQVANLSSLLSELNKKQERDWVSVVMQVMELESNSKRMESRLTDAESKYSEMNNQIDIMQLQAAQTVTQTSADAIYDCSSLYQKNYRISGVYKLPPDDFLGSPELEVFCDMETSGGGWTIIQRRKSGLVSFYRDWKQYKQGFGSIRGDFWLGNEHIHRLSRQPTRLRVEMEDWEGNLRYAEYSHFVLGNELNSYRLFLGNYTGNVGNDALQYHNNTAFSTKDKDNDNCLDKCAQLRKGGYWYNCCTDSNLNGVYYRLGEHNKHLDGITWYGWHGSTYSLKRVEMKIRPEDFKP
In words: flow cytometry, 293T cells transfected with mouse LAIR1, anti-FLAG-APC against anti-LAIR1-PE; left gate of the same panel 56; Control panel 14 (left) and 15 (right). The method, then: as §1

The target of assay [10] is T8, human LILRB2 (human, UniProt Q8N423 22-597).
T8 construct: also called leukocyte immunoglobulin-like receptor B2
As to the kind of experiment: flow cytometry on human cord blood LILRB2+ cells. How it is done: as §1

Assay [11] has as its target B4. In words: flow cytometry on transfected 293T cells. The method, then: as §1

T6 sequence (O75019 17-489 limits assumed): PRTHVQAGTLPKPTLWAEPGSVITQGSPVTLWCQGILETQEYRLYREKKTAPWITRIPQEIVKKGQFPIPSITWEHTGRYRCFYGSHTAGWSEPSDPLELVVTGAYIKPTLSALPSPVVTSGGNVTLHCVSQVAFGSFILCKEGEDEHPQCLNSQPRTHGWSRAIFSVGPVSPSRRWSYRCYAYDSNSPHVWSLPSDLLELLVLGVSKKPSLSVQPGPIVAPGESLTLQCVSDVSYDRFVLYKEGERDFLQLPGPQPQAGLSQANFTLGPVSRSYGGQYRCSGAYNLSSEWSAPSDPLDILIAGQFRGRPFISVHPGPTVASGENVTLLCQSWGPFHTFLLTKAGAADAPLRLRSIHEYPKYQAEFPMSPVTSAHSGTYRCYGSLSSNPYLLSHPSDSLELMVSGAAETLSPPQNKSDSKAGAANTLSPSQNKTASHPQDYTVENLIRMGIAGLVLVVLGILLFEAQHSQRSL
T2 sequence (P59901 24-499 limits assumed): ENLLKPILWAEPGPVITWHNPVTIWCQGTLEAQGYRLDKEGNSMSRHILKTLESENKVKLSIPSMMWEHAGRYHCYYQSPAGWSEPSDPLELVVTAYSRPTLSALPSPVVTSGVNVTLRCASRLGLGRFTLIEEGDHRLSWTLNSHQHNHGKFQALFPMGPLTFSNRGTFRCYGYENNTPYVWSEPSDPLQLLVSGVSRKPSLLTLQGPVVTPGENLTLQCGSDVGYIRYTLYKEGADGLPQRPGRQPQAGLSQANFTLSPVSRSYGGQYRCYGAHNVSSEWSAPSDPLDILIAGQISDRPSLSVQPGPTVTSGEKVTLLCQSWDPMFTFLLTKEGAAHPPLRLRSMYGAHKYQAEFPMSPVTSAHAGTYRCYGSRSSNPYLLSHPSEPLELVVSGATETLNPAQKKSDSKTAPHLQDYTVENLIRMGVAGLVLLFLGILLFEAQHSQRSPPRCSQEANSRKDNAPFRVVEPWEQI
T3 sequence (Q8NHL6 other isoform, or with tags, fused parts or gaps limits assumed): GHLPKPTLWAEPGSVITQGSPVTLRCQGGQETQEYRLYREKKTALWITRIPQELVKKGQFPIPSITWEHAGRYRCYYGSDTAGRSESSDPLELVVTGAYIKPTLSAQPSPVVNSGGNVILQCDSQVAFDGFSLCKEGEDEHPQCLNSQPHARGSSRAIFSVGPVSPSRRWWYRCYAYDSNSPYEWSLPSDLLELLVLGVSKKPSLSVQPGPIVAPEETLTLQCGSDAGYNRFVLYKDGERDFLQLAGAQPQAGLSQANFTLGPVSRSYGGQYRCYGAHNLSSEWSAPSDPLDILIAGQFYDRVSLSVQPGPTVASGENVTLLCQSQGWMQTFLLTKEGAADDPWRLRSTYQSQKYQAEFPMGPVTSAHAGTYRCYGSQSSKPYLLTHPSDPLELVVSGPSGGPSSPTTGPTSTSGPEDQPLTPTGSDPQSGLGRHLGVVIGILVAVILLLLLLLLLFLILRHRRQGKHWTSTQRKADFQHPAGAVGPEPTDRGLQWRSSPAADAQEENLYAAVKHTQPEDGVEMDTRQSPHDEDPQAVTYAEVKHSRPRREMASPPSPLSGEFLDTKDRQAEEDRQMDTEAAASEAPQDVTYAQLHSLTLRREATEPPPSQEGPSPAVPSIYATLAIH
T8 sequence (Q8N423 22-597 D161E/M235V limits assumed): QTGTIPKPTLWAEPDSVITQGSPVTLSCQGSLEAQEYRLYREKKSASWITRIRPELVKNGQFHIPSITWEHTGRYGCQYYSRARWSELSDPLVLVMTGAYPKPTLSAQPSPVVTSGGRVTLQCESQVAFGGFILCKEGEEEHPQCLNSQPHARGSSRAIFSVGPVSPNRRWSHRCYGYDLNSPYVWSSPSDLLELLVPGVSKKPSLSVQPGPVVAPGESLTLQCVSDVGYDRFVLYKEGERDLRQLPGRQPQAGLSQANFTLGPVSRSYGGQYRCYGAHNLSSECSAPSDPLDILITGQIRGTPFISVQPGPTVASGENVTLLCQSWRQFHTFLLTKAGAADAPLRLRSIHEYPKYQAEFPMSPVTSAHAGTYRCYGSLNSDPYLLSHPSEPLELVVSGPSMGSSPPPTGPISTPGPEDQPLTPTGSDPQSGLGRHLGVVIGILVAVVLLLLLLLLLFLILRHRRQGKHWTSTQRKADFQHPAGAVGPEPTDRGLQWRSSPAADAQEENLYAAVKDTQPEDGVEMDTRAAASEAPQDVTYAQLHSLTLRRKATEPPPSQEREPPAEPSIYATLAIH
T5 sequence (O75023 other isoform, or with tags, fused parts or gaps limits assumed): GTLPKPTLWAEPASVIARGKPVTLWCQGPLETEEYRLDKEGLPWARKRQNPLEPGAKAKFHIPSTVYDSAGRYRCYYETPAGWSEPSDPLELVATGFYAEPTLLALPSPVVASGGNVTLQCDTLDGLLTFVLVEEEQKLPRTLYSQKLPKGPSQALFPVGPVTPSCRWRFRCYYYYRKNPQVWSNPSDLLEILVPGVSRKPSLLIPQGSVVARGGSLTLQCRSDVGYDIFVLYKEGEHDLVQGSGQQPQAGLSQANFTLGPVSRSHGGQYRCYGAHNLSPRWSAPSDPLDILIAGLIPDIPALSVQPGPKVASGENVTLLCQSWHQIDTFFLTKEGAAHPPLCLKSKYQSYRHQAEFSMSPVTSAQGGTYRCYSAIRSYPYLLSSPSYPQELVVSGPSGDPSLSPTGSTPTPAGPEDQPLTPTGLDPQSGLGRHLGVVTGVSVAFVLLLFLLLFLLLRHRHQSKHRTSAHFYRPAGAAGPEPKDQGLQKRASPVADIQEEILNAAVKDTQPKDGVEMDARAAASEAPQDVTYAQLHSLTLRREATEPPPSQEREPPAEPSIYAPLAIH
T4 sequence (O75022 other isoform, or with tags, fused parts or gaps limits assumed): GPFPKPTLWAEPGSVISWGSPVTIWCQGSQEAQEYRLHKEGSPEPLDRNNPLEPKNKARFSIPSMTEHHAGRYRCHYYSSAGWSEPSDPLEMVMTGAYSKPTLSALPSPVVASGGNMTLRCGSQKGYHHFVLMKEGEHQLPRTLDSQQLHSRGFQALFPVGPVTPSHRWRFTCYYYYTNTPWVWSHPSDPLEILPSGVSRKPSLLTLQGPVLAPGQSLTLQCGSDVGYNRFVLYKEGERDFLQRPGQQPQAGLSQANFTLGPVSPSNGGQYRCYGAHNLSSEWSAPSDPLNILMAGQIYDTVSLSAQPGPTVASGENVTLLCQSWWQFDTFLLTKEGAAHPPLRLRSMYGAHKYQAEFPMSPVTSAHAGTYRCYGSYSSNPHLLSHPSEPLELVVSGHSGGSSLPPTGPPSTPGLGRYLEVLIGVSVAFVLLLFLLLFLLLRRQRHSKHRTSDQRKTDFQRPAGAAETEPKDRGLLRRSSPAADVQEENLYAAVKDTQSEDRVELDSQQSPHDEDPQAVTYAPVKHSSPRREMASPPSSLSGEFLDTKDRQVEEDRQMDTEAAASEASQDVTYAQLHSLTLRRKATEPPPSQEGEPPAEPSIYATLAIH

B1: GST-Angptl-5-FLAG, in house, bacterially expressed (ligand)
chain: NCVHHSTDSSVVNIVEDGSNAKDESKSNDTVCKEDCEESCDVKTKITREEKHFMCRNLQNSIVSYTRSTKKLLRNMMDEQQASLDYLSNQVNELMNRVLLLTTEVFRKQLDPFPHRPVQSHGLDCTDIKDTIGSVTKTPSGLYIIHPEGSSYPFEVMCDMDYRGGGWTVIQKRIDGIIDFQRLWCDYLDGFGDLLGEFWLGLKKIFYIVNQKNTSFMLYVALESEDDTLAYASYDNFWLEDETRFFKMHLGRYSGNAGDAFRGLKKEDNQNAMPFSTSDVDNDGCRPACLVNGQSVKSCSHLHNKTGWWFNECGLANLNGIHHFSGKLLATGIQWGTWTKNNSPVKIKSVSMKIRRMYNPYFK
notes: also called GST-A5 (in house, bacterial); GST-A5-FLAG; not shown: glutathione S-transferase (GST) tag at the N-terminus (pGEX vector); FLAG tag at the C-terminus
In the case of B1, the binding result in assay [1] is on record as “binds”.

B2: GST-Angptl-5 (purified, purchased from Abnova) (ligand)
chain: NCVHHSTDSSVVNIVEDGSNAKDESKSNDTVCKEDCEESCDVKTKITREEKHFMCRNLQNSIVSYTRSTKKLLRNMMDEQQASLDYLSNQVNELMNRVLLLTTEVFRKQLDPFPHRPVQSHGLDCTDIKDTIGSVTKTPSGLYIIHPEGSSYPFEVMCDMDYRGGGWTVIQKRIDGIIDFQRLWCDYLDGFGDLLGEFWLGLKKIFYIVNQKNTSFMLYVALESEDDTLAYASYDNFWLEDETRFFKMHLGRYSGNAGDAFRGLKKEDNQNAMPFSTSDVDNDGCRPACLVNGQSVKSCSHLHNKTGWWFNECGLANLNGIHHFSGKLLATGIQWGTWTKNNSPVKIKSVSMKIRRMYNPYFK
notes: Bought fusion protein; Used radio-iodinated in the liquid-phase assay; also called GST-A5 (Abnova); ^125I-GST-Angptl-5; not shown: glutathione S-transferase (GST) tag at the N-terminus
Consider B2, for which the binding result is on record as “no binding” in assay [2]; “no binding” in assay [3]; “binds” in assay [4]; “binds” in assay [5]; “no binding” in [6]; “no binding” in [7]. For the same molecule, the binding result in assay [8] is given as “binds”.

B3: mouse LAIR1 (receptor, UniProt Q8BG84 22-263, looked up)
chain: QEGSLPDITIFPNSSLMISQGTFVTVVCSYSDKHDLYNMVRLEKDGSTFMEKSTEPYKTEDEFEIGPVNETITGHYSCIYSKGITWSERSKTLELKVIKENVIQTPAPGPTSDTSWLKTYSIYIFTVVSVIFLLCLSALLFCFLRHRQKKQGLPNNKRQQQRPEERLNLATNGLEMTPDIVADDRLPEDRWTETWTPVAGDLQEVTYIQLDHHSLTQRAVGAVTSQSTDMAESSTYAAIIRH
notes: whole, on cells
For B3, the binding result in assay [9] is “binds”.

For the molecule B4, the binding result in assay [2], in assay [3] and in assay [6] was “no binding” in each case.

B5: GST-Angptl-3 (ligand)
chain: SRIDQDNSSFDSLSPEPKSRFAMLDDVKILANGLLQLGHGLKDFVHKTKGQINDIFQKLNIFDQSFYDLSLQTSEIKEEEKELRRTTYKLQVKNEEVKNMSLELNSKLESLLEEKILLQQKVKYLEEQLTNLIQNQPETPEHPEVTSLKTFVEKQDNSIKDLLQTVEDQYKQLNQQHSQIKEIENQLRRTSIQEPTEISLSSKPRAPRTTPFLQLNEIRNVKHDGIPAECTTIYNRGEHTSGMYAIRPSNSQVFHVYCDVISGSPWTLIQHRIDGSQNFNETWENYKYGFGRLDGEFWLGLEKIYSIVKQSNYVLRIELEDWKDNKHYIEYSFYLGNHETNYTLHLVAITGNVPNAIPENKDLVFSTWDHKAKGHFNCPEGYSGGWWWHDECGENNLNGKYNKPRAKSKPERRRGLSWKSQNGRLYSIKSTKMLIHPTDSESFE
notes: also called GST-Angptls-FLAG (Angptl-3); not shown: glutathione S-transferase (GST) tag (pGEX vector); FLAG tag (GST-Angptls-FLAG)
In the case of B5, the binding result in assay [10] is reported as “binds”.

B6: human Angptl-3 with FLAG tag at the C-terminus (ligand)
chain: DQDNSSFDSLSPEPKSRFAMLDDVKILANGLLQLGHGLKDFVHKTKGQINDIFQKLNIFDQSFYDLSLQTSEIKEEEKELRRTTYKLQVKNEEVKNMSLELNSKLESLLEEKILLQQKVKYLEEQLTNLIQNQPETPEHPEVTSLKTFVEKQDNSIKDLLQTVEDQYKQLNQQHSQIKEIENQLRRTSIQEPTEISLSSKPRAPRTTPFLQLNEIRNVKHDGIPAECTTIYNRGEHTSGMYAIRPSNSQVFHVYCDVISGSPWTLIQHRIDGSQNFNETWENYKYGFGRLDGEFWLGLEKIYSIVKQSNYVLRIELEDWKDNKHYIEYSFYLGNHETNYTLHLVAITGNVPNAIPENKDLVFSTWDHKAKGHFNCPEGYSGGWWWHDECGENNLNGKYNKPRAKSKPERRRGLSWKSQNGRLYSIKSTKMLIHPTDSESFE
notes: not shown: FLAG tag at the C-terminus
For the molecule B6, the binding result in assay [8] was “binds”.

For the molecule B7, the binding result in assay [11] is listed as “no binding”.
